The values below are quoted from earlier work in PMC4554539.

Data set [1] has as its target IL18 receptor (Homo sapiens) (UniProt Q13478). Description: binding to L428 cells.
Data set [2] shares this target. The data set is described as follows: binding to transfected COS-1 cells.

Chain of IL18 (Q14116 37-193): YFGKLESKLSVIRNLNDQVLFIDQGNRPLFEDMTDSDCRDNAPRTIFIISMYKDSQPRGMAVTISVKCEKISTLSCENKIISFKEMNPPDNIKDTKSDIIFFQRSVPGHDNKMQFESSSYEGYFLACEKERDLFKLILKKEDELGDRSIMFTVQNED
Chain of IL18 receptor (Homo sapiens) (Q13478 19-541): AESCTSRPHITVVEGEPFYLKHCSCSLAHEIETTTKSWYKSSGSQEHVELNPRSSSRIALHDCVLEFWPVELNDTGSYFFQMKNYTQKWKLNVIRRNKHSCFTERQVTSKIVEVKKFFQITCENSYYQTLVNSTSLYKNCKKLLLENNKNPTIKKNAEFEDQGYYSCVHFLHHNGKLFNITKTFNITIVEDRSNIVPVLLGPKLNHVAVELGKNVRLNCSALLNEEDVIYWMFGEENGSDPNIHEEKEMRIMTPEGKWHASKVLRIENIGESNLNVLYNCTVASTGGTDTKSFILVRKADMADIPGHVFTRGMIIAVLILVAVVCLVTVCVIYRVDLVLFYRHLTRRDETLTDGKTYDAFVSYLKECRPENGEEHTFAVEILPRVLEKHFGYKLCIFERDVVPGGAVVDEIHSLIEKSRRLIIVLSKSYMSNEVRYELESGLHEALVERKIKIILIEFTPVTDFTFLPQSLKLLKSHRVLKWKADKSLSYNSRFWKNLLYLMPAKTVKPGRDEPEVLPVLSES

As to IL18 (from UniProt Q14116), the Kd in data set [1] was 18.5 nM; in data set [2], 46 nM.
